Reference: patent US20240043530A1 (JIANGSU HENGRUI PHARMACEUTICALS, published 2024)
Like-named read-outs stand apart in the source and are kept apart here. Each block holds one molecule with its values, some of them ahead of it.

Key:
[1] = biological target: human PVRIG expressed on the cell surface (human) (UniProt Q6DKI7); experiment: cell-based or functional assay
[2] = biological target: T1, human PVRIG expressed on the cell surface (human, UniProt Q6DKI7 41-326); experiment: cell-based or functional assay
T1 sequence (looked up): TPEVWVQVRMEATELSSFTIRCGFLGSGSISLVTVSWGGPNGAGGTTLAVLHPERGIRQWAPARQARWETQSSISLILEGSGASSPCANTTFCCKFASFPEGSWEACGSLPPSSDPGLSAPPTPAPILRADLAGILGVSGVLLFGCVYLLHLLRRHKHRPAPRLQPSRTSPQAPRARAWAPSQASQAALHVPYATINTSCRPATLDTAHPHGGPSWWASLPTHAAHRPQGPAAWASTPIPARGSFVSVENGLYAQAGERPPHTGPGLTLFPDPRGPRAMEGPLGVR

[3] = biological target: T1, human PVRIG expressed on the cell …; experiment: cell-based or functional assay; remark: listed apart in the source
[4] = biological target: T1, human PVRIG expressed on the cell …; experiment: cell-based or functional assay; remark: listed apart in the source
[5] = biological target: T1, human PVRIG expressed on the cell …; experiment: cell-based or functional assay; remark: listed apart in the source
[6] = biological target: T1, human PVRIG expressed on the cell …; experiment: cell-based or functional assay; remark: listed apart in the source
[7] = biological target: T2, cynomolgus monkey PVRIG expressed on the cell surface (cynomolgus monkey, UniProt A0A2K5WVV8 1-322); experiment: flow cytometry on cells overexpressing cynomolgus monkey PVRIG, labelled anti-human IgG (method of Example 5)
T2 construct: whole, on cells; also called cells overexpressing cynomolgus monkey PVRIG; Monkey PVRIG FACS
T2 sequence: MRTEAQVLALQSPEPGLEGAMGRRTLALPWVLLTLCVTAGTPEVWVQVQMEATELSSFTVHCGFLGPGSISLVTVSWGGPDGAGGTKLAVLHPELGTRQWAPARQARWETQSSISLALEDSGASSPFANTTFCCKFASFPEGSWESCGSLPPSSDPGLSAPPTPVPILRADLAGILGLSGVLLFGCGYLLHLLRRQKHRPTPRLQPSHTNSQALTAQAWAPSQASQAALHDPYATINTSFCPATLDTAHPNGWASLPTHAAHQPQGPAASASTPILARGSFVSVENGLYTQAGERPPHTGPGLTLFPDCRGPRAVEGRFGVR
Procedure: The expression plasmid carries human or cynomolgus monkey PVRIG gene sequence was transfected into HEK293 cells, and the over-expressing stable transfection monoclonal cell strain was obtained by antibiotic screening and infinite dilution. Overexpressing cells were seeded into a 96-well plate at 2×10⁵ cells/per well. The cells were centrifuged at 300 g for 5 min, the supernatant was then removed, 100 μL of the test antibody was added, and the mixture was incubated at 4° C. for 1 h. The mixture was centrifuged, the supernatant was removed, the plate was washed 3 times with 200 μL of a washing solution (PBS+2% FBS), and then 100 μL of an anti-human IgG secondary antibody (Invitrogen, A-11013) labeled with Alexa Fluor 488 diluted at 1:500 was added. The mixture was incubated at 4° C. for 1 h. The mixture was centrifuged, the supernatant was removed, and the plate was washed 3 times with 200 μL of a washing solution (PBS+2% FBS). Cells were resuspended in 100 μL of PBS and detected by a flow cytometer (BD FACS Calibur or BD FACS Canto_II).
(§1) Binding of the humanized anti-PVRIG/TIGIT bispecific antibodies to human and cynomolgus monkey PVRIG and their blocking of the ligand of human PVRIG were detected according to the methods of Examples 4, 5 and 6.

[8] = biological target: T3, his-tagged cynomolgus monkey PVRIG recombinant protein (cynomolgus monkey); experiment: ELISA, plate coated with cynomolgus monkey PVRIG recombinant protein, HRP anti-human IgG, OD450 (method of Example 4)
T3 construct: expressed in HEK293, purified by Ni-NTA; also called cyno-PVRIG-his; Cynomolgus monkey PVRIG-his
T3 chain: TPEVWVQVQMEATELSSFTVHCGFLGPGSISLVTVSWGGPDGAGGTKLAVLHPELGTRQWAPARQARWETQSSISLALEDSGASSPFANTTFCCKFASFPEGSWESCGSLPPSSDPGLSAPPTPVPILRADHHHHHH
Procedure: Human, cynomolgus monkey or mouse PVRIG protein (at a concentration of 1 μg/mL) was coated on a 96-well microplate at 100 μL per well, and incubated overnight at 4° C. The plate was washed three times with a washing solution at 250 μL per well. For each wash, the plate was shaken for 10 s to ensure adequate cleaning. A blocking solution (PBS+0.05% Tween20+1% BSA) was added at 300 μL per well and the plate was incubated at room temperature for 1 h. The plate was washed three times with a washing solution at 250 μL per well. For each wash, the plate was shaken for 10 s to ensure adequate cleaning. The test anti-PVRIG antibody diluted in diluent was added at 100 μL per well. The mixture was incubated at 37° C. for 1 h. The plate was washed three times with a washing solution at 250 μL per well. HRP-labeled anti-human IgG secondary antibody (Sigma, A8667) was added at 100 μL per well. The mixture was incubated at 37° C. for 1 h. The plate was washed three times with a washing solution at 250 μL per well. […] The OD values at 450 nm were read by using a Thermo MultiSkanFc microplate reader, and the EC₅₀ values of the binding of the anti-PVRIG antibodies to PVRIG were calculated.
as §1

IFNγ (pg/mL) in mixed lymphocyte reaction, 20 nM antibody (control) [1]: 74 pg/mL
IFNγ (pg/mL) in mixed lymphocyte reaction, 100 nM antibody (control) [1]: 89 pg/mL
Molecule: IgG4 control antibody
Killing activity (%) of NK92 on K562, 4 nM antibody (control) [1]: 11.2%
Killing activity (%) of NK92 on K562, 20 nM antibody (control) [1]: 11.7%
Killing activity (%) of NK92 on K562, 100 nM antibody (control) [1]: 9.2%

Experiment on activity in PVRIG reporter cells EC50 [2]: 0.74 nM
IFNγ (pg/mL) in mixed lymphocyte reaction, 4 nM antibody [4]: 912 pg/mL
IFNγ (pg/mL) in mixed lymphocyte reaction, 20 nM antibody [4]: 1420 pg/mL
IFNγ (pg/mL) in mixed lymphocyte reaction, 100 nM antibody [4]: 2350 pg/mL
Experiment on activity in PVRIG reporter cells EC50 [5]: 1.38 nM
B1: positive antibody Tab5 (antibody, human IgG4 S228P, kappa, F234A L235A, V domains shown)
VH: EVQLVESGGGVVKPGGSLRLSCAASGFTFGTSSMNWVRQAPGKGLEWVAVISFDGTEIHYADSVKGRFTISRDNSKSTVFLQMNSLRPDDTALYYCAKGSGNIYFYSGMDVWGQGTTVTVSS
VL: DIQMTQSPSTLSASVGDRVTITCRAGQSISGWLAWFQQKPGKAPNLLIYETSTLESGVPSRFSGSGSGTEYTLTISSLQPDDFATYYCQQYYSYPLTFGQGTKVEIKR
Killing activity (%) of NK92 on K562, 20 nM antibody [3]: 32%
Killing activity (%) of NK92 on K562, 100 nM antibody [3]: 32%
Killing activity (%) of NK92 on K562, 4 nM antibody [6]: 5.9%
Killing activity (%) of NK92 on K562, 20 nM antibody [6]: 7.9%
Killing activity (%) of NK92 on K562, 100 nM antibody [6]: 10%

binding result [7]: no binding (tested: about 200 nM)
binding result [8]: no binding (tested: about 20 nM)
B2: anti-TIGIT antibody 1708 (antibody, human IgG4 S228P, kappa, V domains shown)
VH: EVQLVQSGAEVKKPGASVKVSCKASGYTFTNYWMHWVRQAPGQGLEWMGRIDPDSTGSKYNEKFKTRVTMTRDTSTSTVYMELSSLRSEDTAVYYCAREGAYGYYFDYWGQGTLVTVSS
VL: DIQMTQSPSSLSASVGDRVTITCRASENIYSYLAWYQQKPGKSPKLLIYNARTLAEGVPSRFSGSGSGTDFTLTISSLQPEDFATYYCQYHSGSPLPFGGGTKVEIKR
notes: human IgG4 subtype with S228P; kappa light chain
